Results: article PMC8476707
Where “and” joins values, the source holds several entries; their conditions need not be identical. Equal values may be shown once.

Molecular target: empty AAV8 capsid (recombinant adeno-associated virus serotype 8, no genome) (adeno-associated virus 8 (AAV8)) (UniProt Q8JQF8)
Experiment: native MS; charge detection mass spectrometry (CDMS) of single ions; nanoelectrospray from 200 mM ammonium acetate pH 7.5 after exchange on Micro Bio-Spin columns; 100 ms trapping time; charge versus mass scatterplot; capsid with capsid (multimers of whole particles)

empty AAV8 capsid (recombinant adeno-associated virus serotype 8, no genome) (from UniProt Q8JQF8 1-738) (complex)
percent of ions that are capsid dimers: 3.8% | percent of ions that are capsid trimers: 0.8% | stoichiometry N: 2 and 3
